Measured values taken from paper PMC9287719 (2022).
Changes are numbered by the printed parent chain. Where two headings read alike, the source gives them in different places. Each block holds one binder with its values, some of them ahead of it.

How the values were obtained:
[1] = target: T1, Recombinant FcγRIIa (H131) with C-terminus Biotin (human, UniProt P12318 34-217, C-terminus Biotin)
T1 chain: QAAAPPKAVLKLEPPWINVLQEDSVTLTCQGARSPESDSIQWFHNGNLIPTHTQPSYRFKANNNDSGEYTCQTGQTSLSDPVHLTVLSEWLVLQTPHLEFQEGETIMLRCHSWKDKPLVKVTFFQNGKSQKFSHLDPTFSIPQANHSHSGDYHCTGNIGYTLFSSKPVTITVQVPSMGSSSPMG

[2] = target: T2, Recombinant FcγRIIa (R131) with C-terminus Biotin (human, UniProt P12318, C-terminus Biotin)
T2 chain: T1 chain with H134R

[3] = target: T3, Recombinant FcγRIIb with C-terminus Biotin (human, UniProt P31994 43-217, C-terminus Biotin)
T3 chain: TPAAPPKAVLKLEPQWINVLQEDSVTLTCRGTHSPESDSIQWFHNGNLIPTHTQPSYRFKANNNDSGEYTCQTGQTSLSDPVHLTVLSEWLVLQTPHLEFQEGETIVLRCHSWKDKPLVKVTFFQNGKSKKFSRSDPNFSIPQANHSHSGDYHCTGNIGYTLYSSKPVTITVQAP

[4] = target: T4, Recombinant FcγRI with C-terminus Biotin (human, UniProt P12314 16-292, C-terminus Biotin)
T4 chain: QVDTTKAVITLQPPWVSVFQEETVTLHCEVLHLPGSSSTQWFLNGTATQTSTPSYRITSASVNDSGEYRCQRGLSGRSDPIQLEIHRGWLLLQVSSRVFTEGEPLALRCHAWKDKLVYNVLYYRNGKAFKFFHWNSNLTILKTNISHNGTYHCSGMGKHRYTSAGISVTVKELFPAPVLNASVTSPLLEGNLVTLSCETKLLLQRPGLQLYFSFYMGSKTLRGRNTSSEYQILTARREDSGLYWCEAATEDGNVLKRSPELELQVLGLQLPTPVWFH

[5] = target: Recombinant FcγRIIIa (F158) with C-terminus Biotin (human, UniProt P08637 17-208, C-terminus Biotin)
[6] = target: T5, Recombinant FcγRIIIa (V158) with C-terminus Biotin (human, UniProt P08637, C-terminus Biotin)
[7] = target: T4, Recombinant FcγRI with C-terminus Biotin
[8] = target: T5, Recombinant FcγRIIIa (V158) with …; remark: listed apart in the source
[9] = target: T1, Recombinant FcγRIIa (H131) with …
[10] = target: T2, Recombinant FcγRIIa (R131) with …

T5 sequence (P08637 17-208 F176V): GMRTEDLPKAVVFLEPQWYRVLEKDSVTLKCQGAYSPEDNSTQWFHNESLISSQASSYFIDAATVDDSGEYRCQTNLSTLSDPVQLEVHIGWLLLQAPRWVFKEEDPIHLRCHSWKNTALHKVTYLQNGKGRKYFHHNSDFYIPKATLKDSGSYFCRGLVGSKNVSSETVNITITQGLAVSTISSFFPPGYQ
Sequence of Recombinant FcγRIIIa (F158) with C-terminus Biotin (P08637 17-208): as the sequence (P08637 17-208 F176V) above, with V160F counted along it

IC50 [1]: 244 nM
IC50 [2]: 394 nM
IC50 [3]: 2900 nM
IC50 [4]: 0.06 nM
IC50 [5]: 101 nM
IC50 [6]: 15.5 nM
B1: Infliximab (antibody)
chain 1: EVKLEESGGGLVQPGGSMKLSCVASGFIFSNHWMNWVRQSPEKGLEWVAEIRSKSINSATHYAESVKGRFTISRDDSKSAVYLQMTDLRTEDTGVYYCSRNYYGSTYDYWGQGTTLTVSS
chain 2: DILLTQSPAILSVSPGERVSFSCRASQFVGSSIHWYQQRTNGSPRLLIKYASESMSGIPSRFSGSGSGTDFTLSINTVESEDIADYYCQQSHSWPFTFGSGTNLEVK

IC50 [7]: 0.44 nM
IC50 [8]: 1960 nM
B2: Pembrolizumab (antibody)
chain 1: QVQLVQSGVEVKKPGASVKVSCKASGYTFTNYYMYWVRQAPGQGLEWMGGINPSNGGTNFNEKFKNRVTLTTDSSTTTAYMELKSLQFDDTAVYYCARRDYRFDMGFDYWGQGTTVTVSS
chain 2: EIVLTQSPATLSLSPGERATLSCRASKGVSTSGYSYLHWYQQKPGQAPRLLIYLASYLESGVPARFSGSGSGTDFTLTISSLEPEDFAVYYCQHSRDLPLTFGGGTKVEIK

IC50 [9]: 137 nM
IC50 [10]: 1570 nM
B3: Panitumumab (antibody)
chain 1: QVQLQESGPGLVKPSETLSLTCTVSGGSVSSGDYYWTWIRQSPGKGLEWIGHIYYSGNTNYNPSLKSRLTISIDTSKTQFSLKLSSVTAADTAIYYCVRDRVTGAFDIWGQGTMVTVSS
chain 2: DIQMTQSPSSLSASVGDRVTITCQASQDISNYLNWYQQKPGKAPKLLIYDASNLETGVPSRFSGSGSGTDFTFTISSLQPEDIATYFCQHFDHLPLAFGGGTKVEIK
